Measured values taken from US10907134B2, “Mutated genes for the catalytic protein of oplophorus luciferase and use thereof” (JNC CORPORATION, priority 2013, dated 2021).
Changes are numbered by the printed parent chain. Names may count otherwise. One block for each molecule: values may come before it.

Columns and labels:
[1] = Substrate specificities of KAZ mutants (ZZ-fused, crude enzyme), CTZ; type: biochemical; conditions: for Relative Luminescence Activity CTZ Int. / Relative Luminescence Activity CTZ Imax: ZZ-fused crude enzyme, 1 μg substrate; for Relative Luminescence Activity CTZ Int.: integrated for 60 seconds; for Relative Luminescence Activity CTZ Imax: maximum intensity of luminescence
Protocol: (§1) The coelenterazine analogues used for substrate specificity studies were synthesized by the methods described in publications. Specifically, bis-coelenterazine was synthesized by the method described in Nakamura et al. (1997) Tetrahedron Lett. 38: 6405-6406; furimazine by the method described in Hall et al. (2012) ACS Chem. Biol. […]; and, 6h-coelenterazine, f-coelenterazine and 6h-f-coelenterazine by the methods described in Inouye et al (2013) Biochem. Biophys. Res. Commun. 437: 23-28.
(§2) DTT was added to the crude enzyme solutions obtained in EXAMPLE 17 at a final concentration of 1 mM and the mixtures were allowed to stand in an ice water for more than 5 hours in the same manner as Example 8. A luminescence reaction was started by the addition of 1 μL each of the crude enzyme solutions to 100 μL of TE containing 1 μg of coelenterazine (manufactured by JNC Corp.) or its analogues. The luminescence activities were determined using a luminometer (manufactured by Atto Inc.: AB2200) for 60 seconds, and the maximum intensity of luminescence (Imax) was shown as relative luminescence activity.

[2] = Substrate specificities of KAZ mutants (ZZ-fused, crude enzyme), h-CTZ; type: biochemical; conditions: 1 μg substrate; for Relative Luminescence Activity h-CTZ Int.: integrated for 60 seconds; for Relative Luminescence Activity h-CTZ Imax: maximum intensity of luminescence
Protocol: as §1, §2

[3] = Substrate specificities of KAZ mutants (ZZ-fused, crude enzyme), 6h-CTZ; type: biochemical; conditions: for Relative Luminescence Activity 6h-CTZ Int. / Relative Luminescence Activity 6h-CTZ Imax: 1 μg substrate; for Relative Luminescence Activity 6h-CTZ Int.: integrated for 60 seconds; for Relative Luminescence Activity 6h-CTZ Imax: maximum intensity of luminescence
Protocol: as §1, §2

[4] = Substrate specificities of KAZ mutants (ZZ-fused, crude enzyme), furimazine; type: biochemical; conditions: 1 μg substrate; for Relative Luminescence Activity Furimazine Int.: integrated for 60 seconds; for Relative Luminescence Activity Furimazine Imax: maximum intensity of luminescence
Protocol: as §1, §2

CHO-K1 cells [5] = assay: Luminescence activity of KAZ mutants expressed in animal culture cells with signal peptide of Gaussia luciferase for secretion; type: cell-based, Chinese hamster; conditions: pcDNA3-GLsp- vectors; for Relative Luminescence Activity (%, Imax) Cell Extracts / Relative Luminescence Activity (%, Imax) Culture Medium: Table 11, CHO-K1, coelenterazine
In short: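 CHO-K1 cells were transfected with the KAZ mutant plasmid plus an internal standard vector. After 48 h, culture medium and sonicated cell extracts were collected. 5 μL of each was added to 0.5 μg coelenterazine in 30 mM Tris-HCl pH 7.6, 10 mM EDTA, and luminescence was read for 60 s, with maximum intensity (Imax) expressed as a percentage.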

CHO-K1 cells [6] = assay: Luminescence activity of KAZ mutants expressed in animal culture cells without secretional signal peptide sequence; type: cell-based, Chinese hamster; conditions: for Relative Luminescence Activity (Imax) Cell Extracts / Relative Luminescence Activity (Imax) Culture Medium: Table 12, pcDNA3- vectors without secretion signal
Protocol: Chinese hamster ovary cell line CHO-K1 was cultured in Ham's F-12 medium (manufactured by Wako Pure Chemical Industries, Ltd.) supplemented with 10% (v/v) fetal bovine serum (manufactured by Biowest Inc.). The CHO-K1 cells were plated in a 6-well plate in 1×10^5 cells/well/2 mL medium (n=2) and cultured in an incubator at 37° C. in 5% (v/v) CO2. After 24 hours, the purified recombinant plasmid was transfected to CHO-K1 cells using a FuGene HD transfection kit (manufactured by Promega Corp.), which was provided for subsequent experiment. Specifically, 1 μg of the recombinant plasmid pGL4.13 [Luc2/sv40], 0.1 μg of the internal standard vector and 3 μL of FuGene HD were added to 100 μL of the medium, which was allowed to stand at room temperature for 15 minutes. Subsequently, 100 μL of the DNA-FuGene complex was added to the cells in the 6 wells. After incubation for 48 hours, the culture medium was collected. On the other hand, the KAZ mutants expressed in the cells were washed 3 times with 3 mL of 1×PBS, then suspended in 1 mL of 1×PBS and disrupted on ice by ultrasonication, which was used as enzyme solutions of the cell-extracts of KAZ mutants.
A luminescence reaction was started by adding 5 μL of the culture media and cell extracts obtained in EXAMPLE 10 to 100 μL of 30 mM Tris-HCl (pH 7.6)-10 mM EDTA (manufactured by Wako Pure Chemical Industries, Ltd.) containing 0.5 μg of coelenterazine (manufactured by INC Corp.). The luminescence activity was determined using a luminometer (manufactured by Atto Inc.: AB2200) for 60 seconds, and the maximum intensity of luminescence (Imax) was defined as a percentage.
The gene fragments of the KAZ mutants with two amino acid substitutions and three amino acid substitutions and nanoKAZ containing the Kozak sequence were digested with restriction enzymes Asp718 and XbaI, and inserted into the Asp718-XbaI site of pcDNA3 vector (manufactured by Invitrogen Inc.) to construct the vectors of pcDNA3-KAZ-V44I, pcDNA3-KAZ-A54I, pcDNA3-KAZ-Y138I, pcDNA3-KAZ-V44I-A54I, pcDNA3-KAZ-V44I-Y138I, pcDNA3-KAZ-A54I-Y138I and pcDNA3-KAZ-V44I-A54I-Y138I.
The culture media of the KAZ mutants with two amino acid substitutions and KAZ mutants with three amino acid substitutions and the enzyme solutions of cell-extracts of KAZ mutants were obtained in the same manner as EXAMPLE 10.
Luminescence activities of the resulting enzyme solutions and enzyme solutions of the cell-extracts of KAZ mutants were determined in the same manner as EXAMPLE 11.

Relative Luminescence Activity CTZ Int. [1]: 66.7
Relative Luminescence Activity CTZ Imax [1]: 66.7
Relative Luminescence Activity h-CTZ Int. [2]: 33.2
Relative Luminescence Activity h-CTZ Imax [2]: 83.1
Luminescence activity compared with dnKAZ with 6h-coelenterazine [3]: higher luminescence activity than dnKAZ
Relative Luminescence Activity 6h-CTZ Int. [3]: 11.1
Relative Luminescence Activity 6h-CTZ Imax [3]: 12.9
Relative Luminescence Activity Furimazine Int. [4]: 9.2
Relative Luminescence Activity Furimazine Imax [4]: 10.6
B1: KAZ-V44I-A54I-Y138I: KAZ mutant with three amino acid substitutions V44I, A54I and Y138I, SEQ ID NO: 16 (protein)
chain: FTLADFVGDWQQTAGYNQDQVLEQGGLSSLFQALGVSVTPIQKIVLSGENGLKIDIHVIIPYEGLSGFQMGLIEMIFKVVYPVDDHHFKIILHYGTLVIDGVTPNMIDYFGRPYPGIAVFDGKQITVTGTLWNGNKIIDERLINPDGSLLFRVTINGVTGWRLCENILA
Substrate specificity ([1]; coelenterazine versus its analogues): high substrate specificity for coelenterazine
Relative Luminescence Activity (%, Imax) Cell Extracts (CHO-K1 cells [5]): 16.2%
Relative Luminescence Activity (%, Imax) Culture Medium (CHO-K1 cells [5]): 1.7%
Relative Luminescence Activity (Imax) Cell Extracts (CHO-K1 cells [6]; CHO-K1, coelenterazine): 56.0
Relative Luminescence Activity (Imax) Culture Medium (CHO-K1 cells [6]; CHO-K1, coelenterazine): 0.08
Luminescence activity compared with wild KAZ when coelenterazine was used as a substrate (CHO-K1 cells [6]; summary of results): markedly higher luminescence activities than wild KAZ
Luminescence activity in the cell extracts, fold higher than wild KAZ (CHO-K1 cells [6]; vectors without a secretion signal, CHO-K1, coelenterazine): 56 fold

Relative Luminescence Activity CTZ Int. [1]: 1.0
Relative Luminescence Activity CTZ Imax [1]: 1.0
Relative Luminescence Activity h-CTZ Int. [2]: 0.7
Relative Luminescence Activity h-CTZ Imax [2]: 1.1
Relative Luminescence Activity 6h-CTZ Int. [3]: 0.2
Relative Luminescence Activity 6h-CTZ Imax [3]: 0.1
Relative Luminescence Activity Furimazine Int. [4]: 0.5
Relative Luminescence Activity Furimazine Imax [4]: 0.4
B2: KAZ: wild 19 kDa catalytic protein of Oplophorus luciferase (19kOLase), amino acid sequence SEQ ID NO: 2 (protein, listed as Oplophorus gracilirostris)
chain: B1 chain with I44V, I54A, I138Y
Relative Luminescence Activity (Imax) (%) Cell Extracts (CHO-K1 cells [5]; Table 5, CHO-K1, 48 hours, 5 μL cell extracts, 0.5 μg coelenterazine): 0.1%
Relative Luminescence Activity (Imax) (%) Culture Medium (CHO-K1 cells [5]; Table 5, CHO-K1, 48 hours, 5 μL culture medium, 0.5 μg coelenterazine): less than 0.01%
Relative Luminescence Activity (%, Imax) Cell Extracts (CHO-K1 cells [5]): 0.3%
Relative Luminescence Activity (%, Imax) Culture Medium (CHO-K1 cells [5]): less than 0.01%
Relative Luminescence Activity (Imax) Cell Extracts (CHO-K1 cells [6]; CHO-K1, coelenterazine): 1.0
Relative Luminescence Activity (Imax) Culture Medium (CHO-K1 cells [6]; CHO-K1, coelenterazine): 0.03
